Measurements from the supplement of paper PMC9112550, “Optimization of the antimicrobial peptide Bac7 by deep mutational scanning” (BMC Biology, 2022).

Each sequence was assayed on Escherichia coli TOP10 (assay: shrunken log2 fold change of peptide-encoding DNA abundance (4.5 h post-induction vs induction); higher = less antimicrobial activity (less host growth inhibition)). Conditions: time post-induction: 4.5 h; library: site-saturation at positions 5, 18, 19, 20.
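Note: peptides expressed intracellularly from a pBAD plasmid library in pooled LB shake-flask culture, induced with 0.3% L-arabinose, DNA abundance read by NGS, three biological replicates, DESeq2 with apeglm shrinkage.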

Sequence | shrunken log2 fold change
RRIRHRPPRLPRPRPRPVVHPRP | -0.115
RRIRLRPPRLPRPRPRPEYSPRP | -0.279
RRIRNRPPRLPRPRPRPNGHPRP | -0.41
RRIRYRPPRLPRPRPRPELEPRP | 0.0858
RRIRMRPPRLPRPRPRPHDMPRP | 0.0059
RRIRFRPPRLPRPRPRPISVPRP | 0.0197
RRIRARPPRLPRPRPRPGPYPRP | 1.85
RRIRLRPPRLPRPRPRPTDPPRP | 0.187
RRIRKRPPRLPRPRPRPDIQPRP | 0.867
RRIRGRPPRLPRPRPRPGILPRP | 0.335
RRIRHRPPRLPRPRPRPFWAPRP | 0.245
RRIRHRPPRLPRPRPRPWPYPRP | -0.01
RRIRFRPPRLPRPRPRPWTWPRP | 0.0306
RRIRERPPRLPRPRPRPFMNPRP | -0.00101
RRIRTRPPRLPRPRPRPKGYPRP | -0.0992
RRIRIRPPRLPRPRPRPWIKPRP | -0.0222
RRIRCRPPRLPRPRPRPPMPPRP | 0.45
RRIRERPPRLPRPRPRPSWQPRP | -0.00861
RRIRNRPPRLPRPRPRPQTWPRP | -0.183
RRIRTRPPRLPRPRPRPIHHPRP | -0.124
RRIRHRPPRLPRPRPRPLWPPRP | 0.27
RRIRPRPPRLPRPRPRPFDCPRP | -0.52

Sequence | shrunken log2 fold change
RRIRARPPRLPRPRPRPYKIPRP | -0.455
RRIRVRPPRLPRPRPRPWMGPRP | -0.339
RRIRQRPPRLPRPRPRPWAPPRP | 0.0985
RRIRYRPPRLPRPRPRPCHCPRP | -0.0269
RRIRTRPPRLPRPRPRPHHEPRP | -0.103
RRIRKRPPRLPRPRPRPLFEPRP | 0.513
RRIRVRPPRLPRPRPRPESRPRP | -0.0259
RRIRWRPPRLPRPRPRPFSLPRP | 0.141
RRIRFRPPRLPRPRPRPKWQPRP | 0.000886
RRIRQRPPRLPRPRPRPPQSPRP | 0.671
RRIRERPPRLPRPRPRPNNFPRP | -0.0786
RRIRSRPPRLPRPRPRPWPAPRP | 0.199
RRIRKRPPRLPRPRPRPYQEPRP | 0.0431
RRIRERPPRLPRPRPRPHVCPRP | -0.0153
RRIRNRPPRLPRPRPRPMHFPRP | -0.145
RRIRTRPPRLPRPRPRPENKPRP | -0.178
RRIRLRPPRLPRPRPRPFVYPRP | -0.476
RRIRKRPPRLPRPRPRPGCIPRP | 0.424
RRIRNRPPRLPRPRPRPASNPRP | -0.065
RRIRLRPPRLPRPRPRPQMAPRP | -0.0634
RRIRNRPPRLPRPRPRPCMLPRP | -0.306
RRIRIRPPRLPRPRPRPKHQPRP | -0.495

Sequence | shrunken log2 fold change
RRIRKRPPRLPRPRPRPHQLPRP | 0.0824
RRIRARPPRLPRPRPRPTIFPRP | 0.377
RRIRMRPPRLPRPRPRPLQLPRP | 0.102
RRIRGRPPRLPRPRPRPKVWPRP | 0.665
RRIRERPPRLPRPRPRPPEYPRP | -0.0278
RRIRQRPPRLPRPRPRPSPYPRP | -0.187
RRIRARPPRLPRPRPRPTHSPRP | 0.459
RRIRNRPPRLPRPRPRPVAPPRP | 0.153
RRIRDRPPRLPRPRPRPQACPRP | 0.303
RRIRVRPPRLPRPRPRPINGPRP | -0.17
RRIRDRPPRLPRPRPRPYFPPRP | -0.944
RRIRCRPPRLPRPRPRPICFPRP | -0.241
RRIRTRPPRLPRPRPRPVQDPRP | -0.00469
RRIRPRPPRLPRPRPRPQMSPRP | 0.0674
RRIRGRPPRLPRPRPRPPVEPRP | 0.608
RRIRNRPPRLPRPRPRPDREPRP | -0.149
RRIRWRPPRLPRPRPRPAYCPRP | -0.0978
RRIRCRPPRLPRPRPRPWWAPRP | 1.27
RRIRFRPPRLPRPRPRPEGVPRP | -0.175
RRIRERPPRLPRPRPRPWCCPRP | -0.244
RRIRMRPPRLPRPRPRPCGCPRP | 0.0371
RRIRDRPPRLPRPRPRPGIVPRP | 0.0969

Sequence | shrunken log2 fold change
RRIRVRPPRLPRPRPRPYHVPRP | -0.055
RRIRRRPPRLPRPRPRPPGSPRP | 0.413
RRIRTRPPRLPRPRPRPKEGPRP | -0.0199
RRIRHRPPRLPRPRPRPCVWPRP | 0.0245
RRIRARPPRLPRPRPRPNQYPRP | -0.801
RRIRYRPPRLPRPRPRPVFHPRP | -0.492
RRIRVRPPRLPRPRPRPVPQPRP | 0.324
RRIRFRPPRLPRPRPRPCVDPRP | 0.0365
RRIRPRPPRLPRPRPRPHSWPRP | 0.069
RRIRNRPPRLPRPRPRPMCEPRP | -0.0162
RRIRKRPPRLPRPRPRPTVNPRP | 0.402
RRIRQRPPRLPRPRPRPADAPRP | 0.242
RRIRYRPPRLPRPRPRPQWSPRP | -0.0453
RRIRVRPPRLPRPRPRPNKEPRP | 0.0955
RRIRARPPRLPRPRPRPWSFPRP | -0.00357
RRIRNRPPRLPRPRPRPLWRPRP | 0.179
RRIRTRPPRLPRPRPRPYRVPRP | 0.0325
RRIRARPPRLPRPRPRPYKRPRP | -0.23
RRIRNRPPRLPRPRPRPRWGPRP | -0.0125
RRIRDRPPRLPRPRPRPINAPRP | 0.00476
RRIRDRPPRLPRPRPRPYAKPRP | 0.019
RRIRIRPPRLPRPRPRPNDAPRP | -0.182

Sequence | shrunken log2 fold change
RRIRDRPPRLPRPRPRPIYPPRP | -1.42
RRIRSRPPRLPRPRPRPIVVPRP | 0.027
RRIRIRPPRLPRPRPRPMGRPRP | 0.126
RRIRNRPPRLPRPRPRPRKLPRP | -0.0702
RRIRARPPRLPRPRPRPMMNPRP | 0.198
RRIRQRPPRLPRPRPRPYPPPRP | -0.357
RRIRFRPPRLPRPRPRPSPWPRP | 1.82
RRIRRRPPRLPRPRPRPEVSPRP | 0.214
RRIRGRPPRLPRPRPRPMIAPRP | 0.915
RRIRQRPPRLPRPRPRPWWCPRP | -0.105
RRIRFRPPRLPRPRPRPQRPPRP | 0.203
RRIRRRPPRLPRPRPRPNTWPRP | 0.0852
RRIRRRPPRLPRPRPRPNTYPRP | -0.336
RRIRQRPPRLPRPRPRPTWGPRP | 0.168
RRIRKRPPRLPRPRPRPDINPRP | 0.193
RRIRGRPPRLPRPRPRPNDIPRP | -0.528
RRIRNRPPRLPRPRPRPTGGPRP | 0.154
RRIRHRPPRLPRPRPRPAIMPRP | -0.233
RRIRFRPPRLPRPRPRPMAEPRP | 0.0579
RRIRCRPPRLPRPRPRPMWQPRP | 0.183
RRIRWRPPRLPRPRPRPQWFPRP | -0.27
